Measurements from US7642244 (Hoffmann-La Roche, dated 2010).
Starred links: 1 amine or outer side, 2 acyl side, 3 side chain; linkers in the order of their positions; H or OH if unused. Non-standard residues stand in square brackets, D forms with d. Primed or numbered codes have the meaning given here. *: point of attachment. Pqa = 4-oxo-6-(1-piperazinyl)-3(4H)-quinazoline-acetic acid, O=C(Cn1cnc2ccc(N3CCN([*:1])CC3)cc2c1=O)[*:2]; Adamantane1carbonyl = O=C(C12CC3CC(CC(C3)C1)C2)*; PEG30,000 SSA″ = PEG-CH2CH2NHCOCH2CH2CO-; PEG30,000 SPA = (PEG-30,000)CH2CH2CO; NMeR = CN[C@@H](CCCNC(=N)N)C(=O)O

Assays:
Experiment in all cases: cell-based or functional assay
[1] = biological target: T1, human NPY2 receptor (human, UniProt P49146 1-381)
T1 sequence (looked up): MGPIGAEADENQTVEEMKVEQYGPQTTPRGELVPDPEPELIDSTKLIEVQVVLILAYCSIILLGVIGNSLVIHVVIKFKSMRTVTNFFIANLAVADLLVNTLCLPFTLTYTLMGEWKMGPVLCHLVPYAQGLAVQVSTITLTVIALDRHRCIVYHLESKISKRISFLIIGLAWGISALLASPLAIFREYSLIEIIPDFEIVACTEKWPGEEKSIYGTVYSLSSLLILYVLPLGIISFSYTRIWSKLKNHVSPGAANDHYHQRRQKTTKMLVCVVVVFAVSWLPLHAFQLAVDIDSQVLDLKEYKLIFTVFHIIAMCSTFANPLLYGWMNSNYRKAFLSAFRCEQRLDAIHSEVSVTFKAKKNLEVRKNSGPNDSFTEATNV

[2] = biological target: Y1R
[3] = biological target: Y4R
[4] = biological target: T2, Y5R
T2 sequence (Q15761 whole entry, species assumed, looked up): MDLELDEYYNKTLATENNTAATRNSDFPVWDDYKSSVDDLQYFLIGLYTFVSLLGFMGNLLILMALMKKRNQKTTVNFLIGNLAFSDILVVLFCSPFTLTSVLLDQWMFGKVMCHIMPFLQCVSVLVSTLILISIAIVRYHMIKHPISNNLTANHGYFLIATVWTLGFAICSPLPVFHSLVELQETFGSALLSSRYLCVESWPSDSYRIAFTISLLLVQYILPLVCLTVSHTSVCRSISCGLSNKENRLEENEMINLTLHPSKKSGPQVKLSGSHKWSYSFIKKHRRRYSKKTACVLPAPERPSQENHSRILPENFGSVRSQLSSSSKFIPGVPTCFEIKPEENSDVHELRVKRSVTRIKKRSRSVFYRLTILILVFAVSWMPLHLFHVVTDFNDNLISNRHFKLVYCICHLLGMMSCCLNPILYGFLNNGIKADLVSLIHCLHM

Chain of Y1R (P25929 whole entry): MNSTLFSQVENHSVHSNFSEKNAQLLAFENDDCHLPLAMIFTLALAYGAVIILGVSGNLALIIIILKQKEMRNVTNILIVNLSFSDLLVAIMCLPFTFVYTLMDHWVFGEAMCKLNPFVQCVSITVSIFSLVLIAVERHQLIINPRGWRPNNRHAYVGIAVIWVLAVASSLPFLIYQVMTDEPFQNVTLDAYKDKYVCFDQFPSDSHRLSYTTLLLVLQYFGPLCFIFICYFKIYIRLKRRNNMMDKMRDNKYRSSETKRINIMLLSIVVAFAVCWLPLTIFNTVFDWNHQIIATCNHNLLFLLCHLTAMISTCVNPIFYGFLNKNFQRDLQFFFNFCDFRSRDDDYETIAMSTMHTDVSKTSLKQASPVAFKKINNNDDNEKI

B1: Benzoyl-Ile-Lys-Pqa-Arg-His-Tyr-Leu-Asn-Trp-Val-Thr-Arg-Gln-(NMe)Arg-Tyr-NH2 (peptide)
peptide: IKXRHYLNWVTRQRY
HELM: PEPTIDE1{[O=C(c1ccccc1)[*:2]].I.K.[O=C(Cn1cnc2ccc(N3CCN([*:1])CC3)cc2c1=O)[*:2]].R.H.Y.L.N.W.V.T.R.Q.[meR].Y.[am]}$$$$V2.0
SMILES: CC[C@H](C)[C@H](NC(=O)c1ccccc1)C(=O)N[C@@H](CCCCN)C(=O)N1CCN(c2ccc3ncn(CC(=O)N[C@@H](CCCNC(=N)N)C(=O)N[C@@H](Cc4c[nH]cn4)C(=O)N[C@@H](Cc4ccc(O)cc4)C(=O)N[C@@H](CC(C)C)C(=O)N[C@@H](CC(N)=O)C(=O)N[C@@H](Cc4c[nH]c5ccccc45)C(=O)N[C@H](C(=O)N[C@H](C(=O)N[C@@H](CCCNC(=N)N)C(=O)N[C@@H](CCC(N)=O)C(=O)N(C)[C@@H](CCCNC(=N)N)C(=O)N[C@@H](Cc4ccc(O)cc4)C(N)=O)[C@@H](C)O)C(C)C)c(=O)c3c2)CC1
Y2R EC50 (nM) FLIPR [1]: 0.79 nM | Y2R EC50 (nM) cAMP [1]: 0.66 nM | Y1R EC50 (nM) FLIPR [2]: > 5000 nM | Y4R EC50 (nM) FLIPR [3]: > 5000 nM | Y5R EC50 (nM) FLIPR [4]: > 5000 nM

Ac-IK(PEG30,000 SPA)[Pqa]RHYLNWVTRQ[NMeR]Y-NH2 [Ac-Ile(PEG-30,000)CH2CH2CO(ε)Lys-Pqa-Arg-His-Tyr-Leu-Asn-Trp-Val-Thr-Arg-Gln-(NMe)Arg-Tyr-NH2]
Y2R EC50 (nM) FLIPR [1]: 549 nM | Y2R EC50 (nM) cAMP [1]: 24.4 nM | Y1R EC50 (nM) FLIPR [2]: > 5000 nM | Y4R EC50 (nM) FLIPR [3]: > 5000 nM | Y5R EC50 (nM) FLIPR [4]: > 5000 nM

B2: H-Ile-Lys-Pqa-Arg-His-Tyr-Leu-Asn-Leu-Val-Thr-Arg-Gln-NMe)Arg-Trp-NH2 (peptide)
peptide: IKXRHYLNLVTRQRW
HELM: PEPTIDE1{I.K.[O=C(Cn1cnc2ccc(N3CCN([*:1])CC3)cc2c1=O)[*:2]].R.H.Y.L.N.L.V.T.R.Q.[meR].W.[am]}$$$$V2.0
SMILES: CC[C@H](C)[C@H](N)C(=O)N[C@@H](CCCCN)C(=O)N1CCN(c2ccc3ncn(CC(=O)N[C@@H](CCCNC(=N)N)C(=O)N[C@@H](Cc4c[nH]cn4)C(=O)N[C@@H](Cc4ccc(O)cc4)C(=O)N[C@@H](CC(C)C)C(=O)N[C@@H](CC(N)=O)C(=O)N[C@@H](CC(C)C)C(=O)N[C@H](C(=O)N[C@H](C(=O)N[C@@H](CCCNC(=N)N)C(=O)N[C@@H](CCC(N)=O)C(=O)N(C)[C@@H](CCCNC(=N)N)C(=O)N[C@@H](Cc4c[nH]c5ccccc45)C(N)=O)[C@@H](C)O)C(C)C)c(=O)c3c2)CC1
Y2R EC50 (nM) FLIPR [1]: 0.454 nM | Y2R EC50 (nM) cAMP [1]: 1.06 nM | Y1R EC50 (nM) FLIPR [2]: > 5000 nM | Y4R EC50 (nM) FLIPR [3]: > 5000 nM | Y5R EC50 (nM) FLIPR [4]: > 5000 nM

Adamantane1carbonyl-IK[Pqa]RHYLNWVTRQ[NMeR]Y-NH2 [Adamantoyl-Ile-Lys-Pqa-Arg-His-Tyr-Leu-Asn-Trp-Val-Thr-Arg-Gln-(NMe)Arg-Tyr-NH2]
Y2R EC50 (nM) FLIPR [1]: 2.33 nM | Y2R EC50 (nM) cAMP [1]: 2.9 nM | Y1R EC50 (nM) FLIPR [2]: > 5000 nM | Y4R EC50 (nM) FLIPR [3]: > 5000 nM | Y5R EC50 (nM) FLIPR [4]: > 5000 nM

Ac-IK(PEG30,000 SSA″)[Pqa]RHYLNWVTRQ[NMeR]Y-NH2
Y2R EC50 (nM) FLIPR [1]: 1080 nM | Y2R EC50 (nM) cAMP [1]: 20.7 nM | Y1R EC50 (nM) FLIPR [2]: > 5000 nM | Y4R EC50 (nM) FLIPR [3]: > 5000 nM | Y5R EC50 (nM) FLIPR [4]: > 5000 nM
